According to article PMC3587332 (FEBS letters, 2012):
Each block holds one binder with its values, some of them ahead of it.

Experiments:
[1] = target: T1, Pap1-His6 (S. cerevisiae, UniProt P29468 1-568); assay: pull-down
[2] = target: Pap1-GST (S. cerevisiae, UniProt P29468 1-568); assay: pull-down
[3] = target: T1, Pap1-His6; assay: co-IP
[4] = target: ΔN-Pap1-His6 (S. cerevisiae, UniProt P29468 19-568); assay: co-IP
[5] = target: ΔN-Pap1-GST (S. cerevisiae, UniProt P29468 19-568); assay: pull-down
Chain of ΔN-Pap1-GST (P29468 19-568, stated change not applied): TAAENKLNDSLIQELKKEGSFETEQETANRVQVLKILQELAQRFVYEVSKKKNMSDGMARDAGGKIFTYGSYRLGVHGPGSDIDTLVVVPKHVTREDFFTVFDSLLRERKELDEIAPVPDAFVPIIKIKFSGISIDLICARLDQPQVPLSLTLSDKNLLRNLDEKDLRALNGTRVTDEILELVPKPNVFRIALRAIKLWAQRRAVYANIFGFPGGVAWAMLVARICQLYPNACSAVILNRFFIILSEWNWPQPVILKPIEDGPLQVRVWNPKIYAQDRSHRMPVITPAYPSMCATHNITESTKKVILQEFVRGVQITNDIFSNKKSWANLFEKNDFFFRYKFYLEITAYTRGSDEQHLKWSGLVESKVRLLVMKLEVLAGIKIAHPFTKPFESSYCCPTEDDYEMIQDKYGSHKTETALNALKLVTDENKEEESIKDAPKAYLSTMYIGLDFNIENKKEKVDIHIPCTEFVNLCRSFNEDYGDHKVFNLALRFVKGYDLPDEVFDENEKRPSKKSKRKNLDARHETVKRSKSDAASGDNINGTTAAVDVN

Chain of Pap1-GST (P29468 whole entry): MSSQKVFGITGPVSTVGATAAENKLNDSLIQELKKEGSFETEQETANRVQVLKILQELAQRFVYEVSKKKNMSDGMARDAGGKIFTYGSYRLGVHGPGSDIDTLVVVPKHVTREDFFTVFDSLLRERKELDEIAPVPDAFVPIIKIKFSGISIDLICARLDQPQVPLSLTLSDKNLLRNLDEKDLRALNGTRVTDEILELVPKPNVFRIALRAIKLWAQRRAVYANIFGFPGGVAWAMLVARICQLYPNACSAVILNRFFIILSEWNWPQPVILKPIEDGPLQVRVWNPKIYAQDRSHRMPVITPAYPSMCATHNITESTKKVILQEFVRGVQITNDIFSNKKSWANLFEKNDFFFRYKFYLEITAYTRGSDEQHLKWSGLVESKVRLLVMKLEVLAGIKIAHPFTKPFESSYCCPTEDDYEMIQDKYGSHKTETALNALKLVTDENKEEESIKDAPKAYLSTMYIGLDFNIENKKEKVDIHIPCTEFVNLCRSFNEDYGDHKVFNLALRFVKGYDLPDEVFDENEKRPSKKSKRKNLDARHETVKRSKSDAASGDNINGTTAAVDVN
T1 sequence (P29468 whole entry): as above
Chain of ΔN-Pap1-His6 (P29468 19-568, stated change not applied): as the sequence (P29468 19-568, stated change not applied) above

binding result [1]: binds
B1: GST-Pta1 (1–300) (domain or fragment, S. cerevisiae, UniProt Q01329 1-300, looked up)
chain: MSSAEMEQLLQAKTLAMHNNPTEMLPKVLETTASMYHNGNLSKLKLPLAKFFTQLVLDVVSMDSPIANTERPFIAAQYLPLLLAMAQSTADVLVYKNIVLIMCASYPLVLDLVAKTSNQEMFDQLCMLKKFVLSHWRTAYPLRATVDDETDVEQWLAQIDQNIGVKLATIKFISEVVLSQTKSPSGNEINSSTIPDNHPVLNKPALESEAKRLLDMLLNYLIEEQYMVSSVFIGIINSLSFVIKRRPQTTIRILSGLLRFNVDAKFPLEGKSDLNYKLSKRFVERAYKNFVQFGLKNQII

binding result [2]: binds
B2: Nab6-V5-His6 (the last 210 amino acids) (domain or fragment, S. cerevisiae, UniProt Q03735 925-1134, looked up)
chain: GGGETGTANNTGHENESELEAENENGNETGSFGGLGLAVASSDVKRATSDETDYEDIFNKSSGSSDSSSDVEVIMHSPSDPEYALKSQTLRSSSQTVINSKRPVKIEDEEEAVGMSQLNYRSSLRQAPPRAPSTLSYNHSKNNETPMQDIFTNGETANNRKKKRGSFARHRTIPGSDVMAQYLAQVQHSTFMYAANILGASAEDNTHPDE

binding result [3]: binds | binding result [4]: binds | binding result [5]: binds | binding result [2]: binds
B3: Fip1(1–206) (domain or fragment, S. cerevisiae, UniProt P45976 1-206, looked up)
chain: MSSSEDEDDKFLYGSDSELALPSSKRSRDDEADAGASSNPDIVKRQKFDSPVEETPATARDDRSDEDIYSDSSDDDSDSDLEVIISLGPDPTRLDAKLLDSYSTAATSSSKDVISVATDVSNTITKTSDERLITEGEANQGVTATTVKATESDGNVPKAMTGSIDLDKEGIFDSVGITTIDPEVLKEKPWRQPGANLSDYFNYGFN

binding result [2]: binds
B4: Sub1-V5-His6 (natural protein, S. cerevisiae, UniProt P54000 1-292, looked up)
chain: MSYYNRYRNKRRSDNGGGNLSNSNNNNGGMPSGLSASDAIFDLGKNKRVTVRQFRNINLIDIREYYLDSSTGEMKPGKKGISLTEDLYDELLKHRLNIDEALRRLGSKRPKTKMVRLLSDDEYEDDNNNDSTNNDKDKNGKDKNSPKKRREDKSKASNESHDLEPRSKKKKPAPPTLLPHEENIQNAEREANATLIIPGQAGRKQQEERKQKEKEEAEEAKAKAVAEQEKEAKAKEKIAEPEPEPVPTLQAKKEDIVSNINESKDANSSDEEFAQSLEAEMNKAEDDISEEE
